Test results as given in publication PMC9727814 (Molecular Biology of the Cell, 2022).

B1: Nup62^322-525 (tags removed, from the co-purified complexes) (domain or fragment)
chain: AVGTTTGPAMTYAQLESLINKWSLELEDQERHFLQQATQVNAWDRTLIENGEKITSLHREVEKVKLDQKRLDQELDFILSQQKELEDLLSPLEESVKEQSGTIYLQHADEEREKTYKLAENIDAQLKRMAQDLKDIIEHLNMAGGPADTSDPLQQICKILNAHMDSLQWVDQSSALLQRRVEEASRVCESRRKEQERSLRIAFD
B2: His6-tagged Nup88^517-742 (domain or fragment)
chain: ESPLRILAEAPDSFEKHIKRILQRSAANPALLKSSEKDLAPPPEECLQLISRATQVFREQYILKQDLAKEEIQRRVKLLCDQKRKQLEDLNYCREERKSLREMAERLADKYEEAKEKQEDIMNRMKKVLHSFHTQLPVLSDSERDMKKELQLIPDQLRHLGNAIKQVTMKKDYQQRKMEKVLSPQKPTITLSAYQRKCIQSILKEEGEHIREMVKQINDIRNHVNF

How the values were obtained:
[1] = molecular target: T1, Nup88^517-742 (tags removed, from the co-purified complexes) (rat, UniProt O08658 517-742); assay: SEC-MALS + other: densitometry of SDS-PAGE bands
T1 sequence: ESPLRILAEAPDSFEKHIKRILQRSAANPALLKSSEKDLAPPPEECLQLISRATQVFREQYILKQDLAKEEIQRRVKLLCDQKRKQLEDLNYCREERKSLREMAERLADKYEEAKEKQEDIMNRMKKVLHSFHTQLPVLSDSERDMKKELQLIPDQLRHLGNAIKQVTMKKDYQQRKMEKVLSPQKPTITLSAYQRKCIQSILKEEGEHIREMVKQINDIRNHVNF

[2] = molecular target: the molecule itself; assay: SEC-MALS

Binder	stoichiometry N [1] [Nup62 per Nup88]	stoichiometry N [2]
B1	2	–
B2	–	2
